This note sets out measurements from patent US20240002497A1.

For assay [1], the target named is huNav1.5-β1-β2-β3 (human) (UniProt Q14524). The assay is described as follows: binding FACS, HEK Flp-In.
Assay [2] shares this target. Nature of the assay: FACS, CHO Flp-In, competitor 1 µM IRR00092. (In general: A flow cytometer gives signals particle by particle.)
Assay [3] shares this target. Nature of the assay: binding FACS, CHO Flp-In, periplasmic extract.
The target is the same in assay [4]. Nature of the assay: FACS, CHO Flp-In, competitor 1 µM F010300703.
Assay [5] deals with rhNav1.7α + β1-β2-β3 (rhesus Nav1.7α co-expressed with Navβ1, Navβ2 and Navβ3) (rhesus monkey). Nature of the assay: FACS, periplasmic extract, CHO Flp-In cells; SD MFI 18.
Assay [6] deals with muNav1.7α (murine Nav1.7α) (murine) (UniProt Q62205). Nature of the assay: FACS, periplasmic extract, HEK Jmp-In cells; SD MFI 16.
For assay [7], the target named is rhNav1.7α + β1-β2-β3 (rhesus Nav1.7α co-expressed with Navβ1, Navβ2 and Navβ3) (rhesus monkey). Nature of the assay: FACS, periplasmic extract, CHO Flp-In cells; SD MFI 13.
Assay [8] shares this target. The assay is described as follows: FACS, periplasmic extract, CHO Flp-In cells; SD MFI 1.
Assay [9] has as its target muNav1.7α (murine Nav1.7α) (murine) (UniProt Q62205). Nature of the assay: FACS, periplasmic extract, HEK Jmp-In cells; SD MFI 8.
Assay [10] has the same target. The assay is described as follows: FACS, periplasmic extract, HEK Jmp-In cells; SD MFI 0.
Assay [11] deals with rhNav1.7α + β1-β2-β3 (rhesus Nav1.7α co-expressed with Navβ1, Navβ2 and Navβ3) (rhesus monkey). The assay is described as follows: FACS, periplasmic extract, CHO Flp-In cells; SD MFI 30.
Assay [12] shares this target. The assay is described as follows: FACS, periplasmic extract, CHO Flp-In cells; SD MFI 10.
Assay [13] has as its target muNav1.7α (murine Nav1.7α) (murine) (UniProt Q62205). The assay is described as follows: FACS, periplasmic extract, HEK Jmp-In cells; SD MFI 19.
Assay [14] concerns the target rhNav1.7α + β1-β2-β3 (rhesus Nav1.7α co-expressed with Navβ1, Navβ2 and Navβ3) (rhesus monkey). The assay is described as follows: FACS, periplasmic extract, CHO Flp-In cells; SD MFI 20.
Assay [15] deals with muNav1.7α (murine Nav1.7α) (murine) (UniProt Q62205). Nature of the assay: FACS, periplasmic extract, HEK Jmp-In cells; SD MFI 12.
Assay [16] deals with huNav1.7α + β1-β2-β3 (human Nav1.7α co-expressed with Navβ1, Navβ2 and Navβ3) (human) (UniProt Q15858). The assay is described as follows: FACS, periplasmic extract, CHO Flp-In cells; SD MFI 16.
Assay [17] addresses muNav1.7α (murine Nav1.7α) (murine) (UniProt Q62205). Nature of the assay: FACS, periplasmic extract, HEK Jmp-In cells; SD MFI 7.
Assay [18] has as its target rhNav1.7α + β1-β2-β3 (rhesus Nav1.7α co-expressed with Navβ1, Navβ2 and Navβ3) (rhesus monkey). The assay is described as follows: FACS, periplasmic extract, CHO Flp-In cells; SD MFI 6.
For assay [19], the target named is muNav1.7α (murine Nav1.7α) (murine) (UniProt Q62205). Nature of the assay: FACS, periplasmic extract, HEK Jmp-In cells; SD MFI 1.
For assay [20] the target is unchanged. Nature of the assay: FACS, periplasmic extract, HEK Jmp-In cells; SD MFI 21.
Assay [21] deals with rhNav1.7α + β1-β2-β3 (rhesus Nav1.7α co-expressed with Navβ1, Navβ2 and Navβ3) (rhesus monkey). The assay is described as follows: FACS, periplasmic extract, CHO Flp-In cells; SD MFI 8.
Assay [22] has as its target muNav1.7α (murine Nav1.7α) (murine) (UniProt Q62205). The assay is described as follows: FACS, periplasmic extract, HEK Jmp-In cells; SD MFI 25.
In assay [23] the target is rhNav1.7α + β1-β2-β3 (rhesus Nav1.7α co-expressed with Navβ1, Navβ2 and Navβ3) (rhesus monkey). Nature of the assay: FACS, periplasmic extract, CHO Flp-In cells; SD MFI 0.
For assay [24], the target named is muNav1.7α (murine Nav1.7α) (murine) (UniProt Q62205). The assay is described as follows: FACS, periplasmic extract, HEK Jmp-In cells; SD MFI 15.

B1: F0103PMP492E09 (bispecific antibody)
chain: EVQLVESGGGLVQPGGSLRLSCAASGSIFNINSMAWYRRAPGKQRELVASSTNGGSTNYADSVKGRFTISRDNAKRVYLQMNSLTPEDTAVYYCRALLQPSIYDISRTYWGQGTLVTVSSGGGGSGGGGSGGGGSGGGGSGGGGSGGGGSGGGGSGGGGSGGGGSGGGGSEVQLVESGGGLVQAGGSLRLSCAASKSILSFAYMRWYRQAPGKQREFVASIAIGGATSYTDSVKGRFTISRDNAKNTVYLQMNSLKPEDTAVYYCSAPAGQYRGQGTLVTVSSAAADYKDHDGDYKDHDIDYKDDDDKGAAHHHHHHKAAGGGGG
As to B1, the MFI in assay [1] was found to be 1660 MFI; in assay [2], 1860 MFI; in assay [3], 559 MFI; in assay [4] it was 825 MFI.

B2: F0103PMP478E09 (bispecific antibody)
chain: EVQLVESGGGLVQPGGSLRLSCAASGSIFNINSMAWYRRAPGKQRELVASSTNGGSTNYADSVKGRFTISRDNAKRVYLQMNSLTPEDTAVYYCRALLQPSIYDISRTYWGQGTLVTVSSGGGGSGGGGSGGGGSGGGGSGGGGSGGGGSGGGGSGGGGSGGGGSGGGGSEVQLVESGGGLVQAGGSLRLSCAASGRAFSTLAMGWFRQAPGKEREFVAAISRNGNNSATGDSLKGRFTISRDSTKSTVFLQMNTLKPEDTAVYYCAAISTPSASHPYVRKESYRYWGQGTQVTVSSAAADYKDHDGDYKDHDIDYKDDDDKGAAHHHHHHKAAGGGGG
Take B2: the MFI in [1] is 877 MFI; in assay [2] it was 2060 MFI; in assay [3] it was 1080 MFI; in [4], 833 MFI.

B3: F0103464B09 N99A library variant (VHH, name in Kabat numbering)
VHH: EVQLVESGGGLVQPGGSLRLSCATTSRAFIRDVFTGWYRRVPGKERELVARIYNGGNTNYADFAKGRFSISRDNAKKMVTLRMSNLKPEDTGVYYCLFSGTIATGREYRSGDYWGQGTLVTVSS
In the case of B3, the Mean MFI in [5] stood at 611 MFI.

B4: F0103464B09 T100V library variant (VHH, name in Kabat numbering)
VHH: EVQLVESGGGLVQPGGSLRLSCATTSRAFIRDVFTGWYRRVPGKERELVARIYNGGNTNYADFAKGRFSISRDNAKKMVTLRMSNLKPEDTGVYYCLFSGTINVGREYRSGDYWGQGTLVTVSS
For B4, the results for the Mean MFI in assay [6] and in assay [7] were 1680 MFI and 564 MFI, respectively.

B5: F0103464B09 N99K library variant (VHH, name in Kabat numbering)
VHH: EVQLVESGGGLVQPGGSLRLSCATTSRAFIRDVFTGWYRRVPGKERELVARIYNGGNTNYADFAKGRFSISRDNAKKMVTLRMSNLKPEDTGVYYCLFSGTIKTGREYRSGDYWGQGTLVTVSS
As for B5, the results for the Mean MFI in assay [8] and in assay [9] were 537 MFI and 923 MFI, respectively.

B6: F0103464B09 N99D library variant (VHH, name in Kabat numbering)
VHH: EVQLVESGGGLVQPGGSLRLSCATTSRAFIRDVFTGWYRRVPGKERELVARIYNGGNTNYADFAKGRFSISRDNAKKMVTLRMSNLKPEDTGVYYCLFSGTIDTGREYRSGDYWGQGTLVTVSS
As for B6, the values for the Mean MFI in assay [10] and in assay [11] were 929 MFI and 520 MFI, respectively.

B7: F0103464B09 N99L library variant (VHH, name in Kabat numbering)
VHH: EVQLVESGGGLVQPGGSLRLSCATTSRAFIRDVFTGWYRRVPGKERELVARIYNGGNTNYADFAKGRFSISRDNAKKMVTLRMSNLKPEDTGVYYCLFSGTILTGREYRSGDYWGQGTLVTVSS
In the case of B7, the values for the Mean MFI in assay [12] and in [13] were 536 MFI and 919 MFI, respectively.

B8: F0103464B09 N99P library variant (VHH, name in Kabat numbering)
VHH: EVQLVESGGGLVQPGGSLRLSCATTSRAFIRDVFTGWYRRVPGKERELVARIYNGGNTNYADFAKGRFSISRDNAKKMVTLRMSNLKPEDTGVYYCLFSGTIPTGREYRSGDYWGQGTLVTVSS
Regarding B8, the results for the Mean MFI in assay [14], in assay [15] and in [16] were 554 MFI, 912 MFI and 612 MFI, respectively.

B9: F0103464B09 N99I library variant (VHH, name in Kabat numbering)
VHH: EVQLVESGGGLVQPGGSLRLSCATTSRAFIRDVFTGWYRRVPGKERELVARIYNGGNTNYADFAKGRFSISRDNAKKMVTLRMSNLKPEDTGVYYCLFSGTIITGREYRSGDYWGQGTLVTVSS
With B9, the Mean MFI in [17] was 946 MFI; in assay [18], 540 MFI.

B10: F0103464B09 N99E library variant (VHH, name in Kabat numbering)
VHH: EVQLVESGGGLVQPGGSLRLSCATTSRAFIRDVFTGWYRRVPGKERELVARIYNGGNTNYADFAKGRFSISRDNAKKMVTLRMSNLKPEDTGVYYCLFSGTIETGREYRSGDYWGQGTLVTVSS
On to B10, for which the Mean MFI came to 938 MFI in assay [19] and 528 MFI in assay [18].

B11: F0103464B09 N99G library variant (VHH, name in Kabat numbering)
VHH: EVQLVESGGGLVQPGGSLRLSCATTSRAFIRDVFTGWYRRVPGKERELVARIYNGGNTNYADFAKGRFSISRDNAKKMVTLRMSNLKPEDTGVYYCLFSGTIGTGREYRSGDYWGQGTLVTVSS
In the case of B11, the Mean MFI turned out to be 956 MFI in [20] and 530 MFI in assay [21].

B12: F0103464B09 N99C library variant (VHH, name in Kabat numbering)
VHH: EVQLVESGGGLVQPGGSLRLSCATTSRAFIRDVFTGWYRRVPGKERELVARIYNGGNTNYADFAKGRFSISRDNAKKMVTLRMSNLKPEDTGVYYCLFSGTICTGREYRSGDYWGQGTLVTVSS
Turning to B12, the Mean MFI in [18] stood at 528 MFI; in [22], 930 MFI.

B13: F0103464B09 T100F library variant (VHH, name in Kabat numbering)
VHH: EVQLVESGGGLVQPGGSLRLSCATTSRAFIRDVFTGWYRRVPGKERELVARIYNGGNTNYADFAKGRFSISRDNAKKMVTLRMSNLKPEDTGVYYCLFSGTINFGREYRSGDYWGQGTLVTVSS
B13: the Mean MFI in assay [13] amounted to 997 MFI; in assay [11] it was 533 MFI.

B14: F0103464B09 N99V library variant (VHH, name in Kabat numbering)
VHH: EVQLVESGGGLVQPGGSLRLSCATTSRAFIRDVFTGWYRRVPGKERELVARIYNGGNTNYADFAKGRFSISRDNAKKMVTLRMSNLKPEDTGVYYCLFSGTIVTGREYRSGDYWGQGTLVTVSS
B14: the figures for the Mean MFI in assay [18] and in [6] were 552 MFI and 952 MFI, respectively.

B15: F0103464B09 T100D library variant (VHH, name in Kabat numbering)
VHH: EVQLVESGGGLVQPGGSLRLSCATTSRAFIRDVFTGWYRRVPGKERELVARIYNGGNTNYADFAKGRFSISRDNAKKMVTLRMSNLKPEDTGVYYCLFSGTINDGREYRSGDYWGQGTLVTVSS
Regarding B15, the Mean MFI in [8] came to 526 MFI.

B16: F0103464B09 N99M library variant (VHH, name in Kabat numbering)
VHH: EVQLVESGGGLVQPGGSLRLSCATTSRAFIRDVFTGWYRRVPGKERELVARIYNGGNTNYADFAKGRFSISRDNAKKMVTLRMSNLKPEDTGVYYCLFSGTIMTGREYRSGDYWGQGTLVTVSS
For B16, the Mean MFI in [23] turned out to be 523 MFI; in assay [24] it was 936 MFI.

B17: F0103464B09 N99F library variant (VHH, name in Kabat numbering)
VHH: EVQLVESGGGLVQPGGSLRLSCATTSRAFIRDVFTGWYRRVPGKERELVARIYNGGNTNYADFAKGRFSISRDNAKKMVTLRMSNLKPEDTGVYYCLFSGTIFTGREYRSGDYWGQGTLVTVSS
For the molecule B17, the Mean MFI in assay [19] was found to be 938 MFI; in assay [18], 516 MFI.
